B1: Tumor necrosis factor ligand superfamily member 14 (Homo sapiens), O43557 (parent)
chain: MEESVVRPSVFVVDGQTDIPFTRLGRSHRRQSCSVARVGLGLLLLLMGAGLAVQGWFLLQLHWRLGEMVTRLPDGPAGSWEQLIQERRSHEVNPAAHLTGANSSLTGSGGPLLWETQLGLAFLRGLSYHDGALVVTKAGYYYIYSKVQLGGVGCPLGLASTITHGLYKRTPRYPEELELLVSQQSPCGRATSSSRVWWDSSFLGGVVHLEAGEKVVVRVLDERLVRLRDGTRSYFGAFMV

Variants of: B1
Conditions: with tnr3_mouse Ltbr

| effect of a mutation on the interaction | Variant |
| --- | --- |
| causing an interaction | A138T;S160G;D221G;E222K |

From IntAct's records for PubMed 26977880
